Measurements reported in article PMC11885566 (Communications Biology, 2025).

How the values were obtained:
[1] = molecular target: T1, SARS-CoV-2 S ectodomain with D7-tag (SARS-CoV-2, UniProt P0DTC2); experiment: cell-based or functional assay
[2] = molecular target: SARS-CoV-2 NTD protein with D7-tag (SARS-CoV-2 (NC_045512.2, Wuhan-Hu-1), UniProt P0DTC2); experiment: ELISA
[3] = molecular target: SARS-CoV-2 S2 subdomain protein with D7-tag (SARS-CoV-2 (NC_045512.2, Wuhan-Hu-1), UniProt P0DTC2); experiment: ELISA
[4] = molecular target: SARS-CoV-2 wild-type RBD protein (BLI) (SARS-CoV-2, UniProt P0DTC2); experiment: BLI
[5] = molecular target: SARS-CoV RBD protein (BLI) (SARS-CoV (isolate of the bought protein …, UniProt P59594)); experiment: BLI
[6] = molecular target: SARS-CoV-2 S1 subdomain protein with D7-tag (SARS-CoV-2 (NC_045512.2, Wuhan-Hu-1), UniProt P0DTC2); experiment: ELISA
[7] = molecular target: T1, SARS-CoV-2 S ectodomain with D7-tag; experiment: ELISA
[8] = molecular target: SARS-CoV-2 RBD protein with D7-tag (SARS-CoV-2, UniProt P0DTC2); experiment: ELISA

Binder	neutralisation of SARS-CoV-2, IC50 [1]	binding result [2]	binding result [3]	Kd [4]	Kd [5]	binding result [6]	binding result [7]	binding result [8]	binding result [4]
CYFN1006-1 (antibody, V domains shown) VH: QMQLVQSGAEVKKPGESLKISCKGSGYTFSYYWIGWVRQMPGKGLEWMGIIYPGDSDTRYSPSFQGQVTISADKSISTAYLHWSSLKASDTAMYYCARQGDLGDWILLGYWGQGTLVTVSS VL: QSALTQPRSVSGSLGQSVTISCTGISSDVGGDNYVSWYQQHPGKAPKLMIYDVSKRPSGVPDRFSGSKSGNTASLTISGLQADDEADYYCCSYALSRVVFGGGTMLTVL	< 5 ng/mL	no binding	no binding	< 0.001 nM	32.4 nM				
CYFN1006-2 (antibody, V domains shown) VH: QMQLVQSGAEVKKPGESLKISCKGSGYTFSYYWIGWVRQMPGKGLEWMGIIYPGDSDTRYSPSFQGQVTISADKSISTAYLHWSSLKASDTAMYYCARQGDLGDWILLGYWGQGTLVTVSS VL: QSALTQPPSASGSPGQSVTISCTGASSDVGGYNYVSWYQQHPGKAPKLMIYEVNKRPSGVPDRFSGSKSGNTASLTISGLQADDEADYYCCSYALSRVVFGGGTMLTVL		no binding	no binding			binds	binds	binds	binds
